Laboratory results as given in patent US20230374151A1.

Columns and labels:
[1] = molecular target: STnMUC1 peptide, biotinylated; assay: SPR (Biacore T200): biotinylated STnMUC1 peptide (35-1) captured on CAP chip, scFv as analyte
[2] = molecular target: TnMUC1 peptide 1 (partially glycosylated), biotinylated; assay: SPR (Biacore T200): biotinylated TnMUC1 peptide 1 (96-1) captured on CAP chip, scFv as analyte, 1:1 fit, average
[3] = molecular target: TnMUC1 peptide (fully glycosylated), biotinylated; assay: SPR (Biacore T200): biotinylated TnMUC1 peptide batch 65-1 captured on CAP chip, scFv as analyte, 1:1 fit, average
[4] = molecular target: STnMUC1 peptide, biotinylated; assay: SPR (Biacore T200): biotinylated STnMUC1 peptide (35-1) captured on CAP chip, scFv as analyte, 1:1 fit, average

STnMUC1 peptide, biotinylated, sequence (main, as listed by the source): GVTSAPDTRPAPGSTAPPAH

murine 5E5 scFv protein (23-P1) obtained from Creative Biolabs
Kd [1]: 84 nM
Kd [2]: 28.7 nM
koff [2]: 0.000803 s⁻¹
Kd [3]: 26.6 nM
koff [3]: 0.000845 s⁻¹
Kd [4]: 84.1 nM
koff [4]: 0.000282 s⁻¹
kon [4]: 3350 M⁻¹ s⁻¹
